Test results taken from US20180326059A1 (GANYMED PHARMACEUTICALS, published 2018).

Target: Claudin 18 splice variant 2 (CLDN18.2), human (human)
Assay: cell-based or functional assay

B1: IMAB362 (antibody, V domains shown)
VH: QVQLQQPGAELVRPGASVKLSCKASGYTFTSYWINWVKQRPGQGLEWIGNIYPSDSYTNYNQKFKDKATLTVDKSSSTAYMQLSSPTSEDSAVYYCTRSWRGNSFDYWGQGTTLTVSS
VL: DIVMTQSPSSLTVTAGEKVTMSCKSSQSLLNSGNQKNYLTWYQQKPGQPPKLLIYWASTRESGVPDRFTGSGSGTDFTLTISSVQAEDLAVYYCQNDYSYPFTFGSGTKLEIKR
modifications: In the in vivo imaging of Example 14 the antibody carried a Dyelight 680 label, site not given; unlabelled in the flow cytometry.
  IMAB362-mediated ADCC on NUGC-4 cells, EC50 on chemotherapy-pretreated versus untreated target cells: ~0.33 fraction of the EC50 on untreated cells
